US20170071208A1, “COMPOSITIONS FOR MOSQUITO CONTROL AND USES OF SAME” (Forrest Innovations Ltd., priority 2014, published 2017)

Assays:
[1] = test system: Aedes aegypti female mosquitoes, Rockefeller strain; experiment: CDC bottle bioassay with deltamethrin, insecticide-susceptible Rockefeller strain; type: in vivo; details: diagnostic dosage 2 μg/mL of deltamethrin; Rockefeller strain adult females
Method: (§1) FIGS. 5A-C are graphs illustrating the dose-response curves for 3- to 5-day-old Aedes aegypti female mosquitoes on insecticide-susceptible Rockefeller strain (FIG. 5A) and on insecticide-resistant Rio de Janeiro strain (FIG. 5B). Mosquitoes were exposed to different concentrations of deltamethrin in 250-mL glass bottles for up to 24 hours and the percentage of mortality for each time point is shown. FIG. 5C, comparison of the mortality rates of female mosquitoes from Rockefeller (Rock) and Rio de Janeiro (RJ) strains exposed to 2 μg/mL of deltamethrin for different time-points. Data represent mean values of three replicates with standard deviation.
(§2) Mosquitoes were taken from an Ae. aegypti colony of the Rockefeller strain or from a mosquito field population of Ae. aegypti isolated from urban area of Rio de Janeiro, Brazil. Both lineages were reared continuously in the laboratory at 28° C. and 70-80% relative humidity. Adult mosquitoes were maintained in a 10% sucrose solution, and the adult females were fed with sheep blood for egg laying. The larvae were reared on dog/cat food unless stated otherwise.
(§3) Bottles were prepared following the Brogdon and McAllister (1998) protocol [Brogdon and McAllister (1998) Emerg Infect Dis 4:605-613]. […] At 15, 30 and 45 min intervals, the number of live and dead mosquitoes in each bottle was recorded. […]

[2] = test system: Aedes aegypti female mosquitoes, Rio de Janeiro strain; experiment: CDC bottle bioassay with deltamethrin, insecticide-resistant Rio de Janeiro strain; type: in vivo
Method: as §1, §2, §3

[3] = test system: Argonaute-3 (AAEL007823) mRNA; experiment: qPCR analysis of Ago-3 mRNA expression after dsRNA treatment; type: in vivo, Aedes aegypti; details: vs water; for Ago3 mRNA levels: larvae soaked 24 h in dsRNA, 24 and 48 hours after the end of dsRNA treatment
Method: Third instar larvae were treated (in groups of 100 larvae) in a final volume of 3 mL of dsRNA solution in autoclaved water (0.5 μg/μL for sodium channel (AAEL008297), PgP (AAEL010379) and Ago3 (AAEL007823) dsRNA, or 0.1 μg/μL for CYP9J26 (JF924909.1). The control group was kept in 3 ml sterile water only. Larvae were soaked in the dsRNA solutions for 24 hr at 27° C., and then transferred into new containers (300 larvae/1500 mL of chlorine-free tap water), which were also maintained at 27° C., and were provided 6 mg/100 mL lab dog/cat diet (Purina Mills) suspended in water as a source of food on a daily basis. As pupae developed, they were transferred to individual vials to await eclosion and sex sorting. For bioassays purpose only females up to five days old were used. See Flowchart 1, FIG. 1 for detailed explanation of this experiment.
Total RNA was extracted from groups of five Ae. aegypti fourth instar larvae and early adult male/female Ae. aegypti, using TRIzol (Invitrogen, Carlsbad, Calif., USA) according to the manufacturer's instructions. RNA was treated with amplification grade DNase I (Invitrogen) and 1 μg was used to synthesize cDNA using a First Strand cDNA Synthesis kit (Invitrogen). PCR products were purified using a QIAquick PCR purification kit (Qiagen). The MEGAscript RNAi kit (Ambion) was then used for in vitro transcription and purification of dsRNAs. See Flowchart 4, FIG. 4 for detailed explanation production off dsRNA.
Approximately 1000 ng first-strand cDNA obtained as described previously was used as template. The qPCR reactions were performed using SYBR® Green PCR Master Mix (Applied Biosystems) following the manufacturer's instructions. […] Raw quantification cycle (Cq) values normalized against those of the tubulin and S7 standards were then used to calculate the relative expression levels in samples using the 2^−ΔΔct method [Livak & Schmittgen, (2001) Methods. […]

[4] = test system: Ae. aegypti Rockefeller strain; experiment: Oviposition assay after larval dsRNA soaking plus feeding; type: in vivo, Aedes aegypti; details: larvae soaked 24 h in 0.5 μg/μL dsRNA, fed twice with agarose plug containing dsRNA; 15 engorged females per cage; vs water control
Method: FIG. 12 is a flowchart illustration depicting introduction of dsRNA into mosquito larvae via soaking with different doses of “naked” dsRNA plus additional larvae feeding with food-containing dsRNA. Step a) 100 larvae from A. aegypti Rockefeller strain (3rd instar) were soaked for 24 hours with the respective dsRNAs (concentration range from 0.02-0.5 μg/μL) or only in water and were then fed 2 times with food plus agarose 2% containing dsRNA until they reach adult stage (Step b). Step c) The adults arising were allowed to copulate for 3-5 days. Step d) mosquitoes were fed with defibrinated sheep blood. Step e) after blood feeding 15 fully-engorged females were transferred into 3 small cages to be assayed for oviposition. Step f) the total number of laid eggs and the percentage of hatched eggs were counted. FIGS. 13A-B are graphs illustrating larvae from Ae. aegypti Rockefeller strain (3rd instar) soaked for 24 hours in 0.5 μg/μL of Aubergine (Aub) or Argonaute-3 (Ago) dsRNAs or water only. […] (FIG. 13A) The total number of laid eggs and the percentage of hatched eggs were counted (FIG. 13B). […]
(§4) Five days after the blood meal, an ovipositon cup was place inside each cage containing 15 females to allow the females to lay their eggs. […] The number of eggs laid was counted and used to check the viability and egg hatching rate.

[5] = test system: Ae. aegypti Rockefeller strain; experiment: Egg hatching rate after larval dsRNA soaking plus feeding; type: in vivo, Aedes aegypti; details: larvae soaked 24 h in 0.5 μg/μL dsRNA, fed twice with agarose plug containing dsRNA; vs water control
Method: FIG. 12 is a flowchart illustration depicting introduction of dsRNA into mosquito larvae via soaking with different doses of “naked” dsRNA plus additional larvae feeding with food-containing dsRNA. Step a) 100 larvae from A. aegypti Rockefeller strain (3rd instar) were soaked for 24 hours with the respective dsRNAs (concentration range from 0.02-0.5 μg/μL) or only in water and were then fed 2 times with food plus agarose 2% containing dsRNA until they reach adult stage (Step b). Step c) The adults arising were allowed to copulate for 3-5 days. Step d) mosquitoes were fed with defibrinated sheep blood. Step e) after blood feeding 15 fully-engorged females were transferred into 3 small cages to be assayed for oviposition. Step f) the total number of laid eggs and the percentage of hatched eggs were counted. […] (FIG. 13A) The total number of laid eggs and the percentage of hatched eggs were counted (FIG. 13B). […]
as §4
To check the viability of the eggs the oviposition paper were kept to dry and embrionate for a period minimum of 5 days. […] The hatching rate (HR) for each treatment were calculated as follow: HR=total number of hatched larvae/total number of eggs oviposited). […]

| Molecule | mosquitoes dead (mortality) [1] [%] | mosquitoes in the population resistant to deltamethrin ([2]; Rio de Janeiro (RJ) strain, at diagnostic dosage 2 μg/mL) [%] | mosquitoes killed (mortality) ([2]; diagnostic dosage 2 μg/mL of deltamethrin, Rio de Janeiro strain adult females) [%] | Ago3 mRNA expression ([3]; adult mosquitoes soaked with dsRNA as larvae) | Ago3 mRNA levels [3] | Ago3 mRNA levels ([3]; listed as dsRNA against Ago3) | oviposition rate (total number of laid eggs) [4] | number of hatched eggs (hatchability) [5] [%] |
| --- | --- | --- | --- | --- | --- | --- | --- | --- |
| CC1(C)[C@H](C(=O)O[C@H](C#N)c2cccc(Oc3ccccc3)c2)[C@@H]1C=C(Br)Br [deltamethrin] | 100 | 36.05 | 63.95 | – | – | – | – | – |
| Ago3: dsRNA targeting Argonaute-3 (AAEL007823), Example 1, SEQ ID NO: 1823 (nucleic acid, double stranded RNA) CCCCGTCGACGGCCACGAAGTTACGATCAAGATCATTTACAAGCGCAAACAGCGAATGAGCGAGAACATTCAATTCTACAACATTCTCTTCCAACGCATTATGAAAGTCCTGAAGATGGTCGAGATGGGTCGTAAGAACTTTGACCCCTCGGCCCCGAAACTGATTCCGCAGCATCGTCTGGAGATCTGGCCGGGATACGTTAGCGCTGTGGACGAATATGAGGGCGGCTTGATGTTGAATCTCGACGTGTCCCATCGTGTGCTGCTCCAGACGACGGTTTTGGATCACATCCGAACGCTGGCAAGGGCCAATCCCCAAGATTACAAAAACATGGCCACCAAATCGCTGCTGGGAGCCGTTATATTGACCCGA | – | – | – | reached normal levels | decreased mRNA levels | induce gene silencing | no difference | 50 |
